Measurements taken from patent EP4559472A1.

Biological target: Biotinylated C4b (UniProt P0C0L4)
Experiment: SPR, biotinylated C4b on streptavidin chip, 1:1 steady-state affinity model

B1: C4BP(1-4) (protein)
chain: AGNCGPPPTLSFAAPMDITLTETRFKTGTTLKYTCLPGYVRSHSTQTLTCNSDGEWVYNTFCIYKRCRHPGELRNGQVEIKTDLSFGSQIEFSCSEGFFLIGSTTSRCEVQDRGVGWSHPLPQCEIVKCKPPPDIRNGRHSGEENFYAYGFSVTYSCDPRFSLLGHASISCTVENETIGVWRPSPPTCEKITCRKPDVSHGEMVSGFGPIYNYKDTIVFKCQKGFVLRGSSVIHCDADSKWNPSPPACEP
For B1, which Kd is on record?
The Kd was 2900 nM.
